We go through 3 molecules from paper PMC3348928, “Ordered Self-Assembly Mechanism of a Spherical Oncoprotein Oligomer Triggered by Zinc Removal and Stabilized by an Intrinsically Disordered Domain” (PLoS ONE, 2012).

Bounds are passed on as bounds.

Data set [1] has as its target E7 (Human papillomavirus type 16) (UniProt P03129). As to conditions: cited from earlier work.
The target of data set [2] is Recombinant E7 HPV-16 protein (human papillomavirus type 16 E7 oncoprotein) (human papillomavirus type 16) (UniProt P03129). As to the kind of experiment: thioflavin T fluorescence kinetics; ThT traces at different initial E7 concentrations after EDTA, analysed with the kinetically limited (KL) assembly model of Zlotnick; 10 mM sodium phosphate pH 7.0, 1 mM DTT, 20 µM ThT.

For data set [3] the target is unchanged. Nature of the data set: thioflavin T fluorescence kinetics; 10 mM sodium phosphate pH 7.0, 1 mM DTT, 20 µM ThT; triggered by 1.0 mM TPEN; 15 µM protein.
Data set [4] shares this target. Nature of the data set: thioflavin T fluorescence kinetics; 10 mM sodium phosphate pH 7.0, 1 mM DTT, 20 µM ThT; triggered by 1.0 mM EDTA; 15 µM protein (Figure 3).
Data set [5] deals with the molecule itself. Nature of the data set: dynamic light scattering; 15 µM protein, 10 mM sodium phosphate pH 7.0, 1.0 mM DTT, 25°C; after addition of 1.0 mM EDTA (zinc removal); E7 at the plateau, E7C after 2 h and 24 h.

For the molecule E7 (from UniProt P03129), the dissociation constant (Kd) in data set [1] was 1 µM.
As to “Recombinant E7 HPV-16 protein (human papillomavirus type 16 E7 oncoprotein) (from UniProt P03129 1-98) (natural protein)”, in data set [2], the overall average time for each monomer added at 20 µM worked out at 28 s and the z-nucleus size n (KL model) came to 1.2. In addition, in data set [3], the half-life of the slow oligomerization phase, TPEN was less than 6 min. For the same molecule, in data set [4], the half-life of the slow increase in ThT binding (oligomerisation phase) stood at 10 min and the half-life of the slow oligomerization phase, EDTA was less than 8 min.

B1: E7 HPV-16 C-terminal domain, spanning residues 40-98 (domain or fragment, human papillomavirus type 16, UniProt P03129 40-98, looked up)
chain: GPAGQAEPDRAHYNIVTFCCKCDSTLRLCVQSTHVDIRTLEDLLMGTLGIVCPICSQKP
notes: The introduction gives 58 amino acids for E7C, but residues 40-98 are 59; also called E7C; source: recombinant, expressed and purified as previously described [52]
As for B1, the binding result in data set [5] is given as “binds”.

Usually Kd stands for the concentration at which binding is half-saturated.
